No end group written: not given here.
What follows are binders tested against recombinant wild-type (wt) human kallikrein 2 (human, UniProt P20151 25-261) (assay: cell-based or functional assay).
RFKVWWAAG-OH [RFKVWWAAG (SEQ ID NO:65)] gave an inhibition of 22%.
In the case of FKVWWAAG [FKVWWAAG (SEQ ID NO:66)], the inhibition is reported as 0%.
WWAAG-OH [WWAAG (SEQ ID NO:67)] gave an inhibition of 0%.
For SRFKVWWAG-OH [SRFKVWWAG (SEQ ID NO:68)], the inhibition was 80%.
SRFKVWG-OH [SRFKVWG (SEQ ID NO:70)] showed an inhibition of 8%.
SRFKVG-OH [SRFKVG (SEQ ID NO:71)] was tested, and the inhibition was 7%.
With SRFKG-OH [SRFKG (SEQ ID NO:72)] the inhibition was 0%.
With Ac-SRFKVWWG [Ac-SRFKVWWG (SEQ ID NO:74)] the inhibition was 86%.
ARFKVWWG [ARFKVWWG (SEQ ID NO:75)] showed an inhibition of 94%.
Work on Ac-ARFKVWWG [Ac-ARFKVWWG (SEQ ID NO:76)] yielded an inhibition of 93%.
Ac-ARFKVWWGG [Ac-ARFKVWWGG (SEQ ID NO:77)] was tested, and the inhibition was 92%.
Work on ARFKVWWGG [ARFKVWWGG (SEQ ID NO:78)] yielded an inhibition of 93%.
ARFKVWWA [ARFKVWWA (SEQ ID NO:79)] was tested, and the inhibition was 95%.
Binder Ac-ARFKVWWA [Ac-ARFKVWWA (SEQ ID NO:80)] has an inhibition of 94%.
Binder Ac-ARFKVWWAA [Ac-ARFKVWWAA (SEQ ID NO:81)] has an inhibition of 93%.
For ARFKVWWA-NH2 [ARFKVWWA(CONH2) (SEQ ID NO:82)], the inhibition was 86%.
GAARRPFPAPSG [GAARRPFPAPSG (SEQ ID NO:7)] showed an inhibition of 77%.
GAAARPFPAPSG [GAAARPFPAPSG (SEQ ID NO:8)] showed an inhibition of 0%.
For GAARAPFPAPSG [GAARAPFPAPSG (SEQ ID NO:9)], the inhibition was 0%.
With GAARRAFPAPSG [GAARRAFPAPSG (SEQ ID NO:10)] the inhibition was 0%.
Binder GAARRPAPAPSG [GAARRPAPAPSG (SEQ ID NO:11)] has an inhibition of 75%.
GAARRPFAAPSG [GAARRPFAAPSG (SEQ ID NO:12)] was tested, and the inhibition was 24%.
Binder GAARRPFPAASG [GAARRPFPAASG (SEQ ID NO:13)] has an inhibition of 69%.
With GAARRPFPAPAG [GAARRPFPAPAG (SEQ ID NO:14)] the inhibition was 78%.
Binder GAARRPFPVTAG [GAARRPFPVTAG (SEQ ID NO:16)] has an inhibition of 61%.
GPAARPFPVTAG-OH [GPAARPFPVTAG (SEQ ID NO:17)] was tested, and the inhibition was 0%.
In the case of GPARAPFPVTAG-OH [GPARAPFPVTAG (SEQ ID NO:18)], the inhibition is reported as 0%.
Binder GPARRAFPVTAG-OH [GPARRAFPVTAG (SEQ ID NO:19)] has an inhibition of 0%.
GPARRPAPVTAG-OH [GPARRPAPVTAG (SEQ ID NO:20)] gave an inhibition of 49%.
GPARRPFAVTAG-OH [GPARRPFAVTAG (SEQ ID NO:21)] gave an inhibition of 17%.
For GPARRPFPATAG-OH [GPARRPFPATAG (SEQ ID NO:22)], the inhibition was 58%.
For GPARRPFPVAAG-OH [GPARRPFPVAAG (SEQ ID NO:23)], the inhibition was 45%.
Work on GPARRPFPVTG-OH [GPARRPFPVTG (SEQ ID NO:24)] yielded an inhibition of 48%.
For GPARRPFPVG-OH [GPARRPFPVG (SEQ ID NO:25)], the inhibition was 37%.
For GPARRPFPG-OH [GPARRPFPG (SEQ ID NO:26)], the inhibition was 33%.
Binder GPARRPFG-OH [GPARRPFG (SEQ ID NO:27)] has an inhibition of 0%.
GPARRPG-OH [GFARRFG as printed in Table 6 (SEQ ID NO:28)] was tested, and the inhibition was 4%.
GPARRG-OH [GPARRG (SEQ ID NO:29)] showed an inhibition of 8%.
Work on GPARG-OH [GPARG (SEQ ID NO:30)] yielded an inhibition of 0%.
GARRPFPVTAG [GARRPFPVTAG (SEQ ID NO:32)] gave an inhibition of 27%.
Work on GRRPFPVTAG-OH [… as printed in Table 6 (SEQ ID NO:33)] yielded an inhibition of 2%.
With GRPFPVTAG-OH [… as printed in Table 6 (SEQ ID NO:34)] the inhibition was 0%.
With GPFPVTAG-OH [GFFPVTAG as printed in Table 6 (SEQ ID NO:35)] the inhibition was 0%.
For GFPVTAG-OH [GFFVTAG as printed in Table 6 (SEQ ID NO:36)], the inhibition was 0%.
With GPVTAG-OH [GFVTAG as printed in Table 6 (SEQ ID NO:37)] the inhibition was 0%.
In the case of GVTAG-OH [GVTAG (SEQ ID NO:38)], the inhibition is reported as 0%.
In the case of RRPAP [RRPAP (SEQ ID NO:39)], the inhibition is reported as 0%.
RRPFP [RRPFP (SEQ ID NO:40)] gave an inhibition of 0%.
For RRPAG-OH [RRPAG (SEQ ID NO:41)], the inhibition was 0%.
In the case of RRPFG-OH [RRPFG (SEQ ID NO:42)], the inhibition is reported as 0%.
In the case of GRRPAPG-OH [GRRPAPG (SEQ ID NO:43)], the inhibition is reported as 0%.
Work on GRRPFPG-OH [GRRPFPG (SEQ ID NO:44)] yielded an inhibition of 0%.
For AARRPAPG-OH [AARRPAPG (SEQ ID NO:45)], the inhibition was 36%.
In the case of AAARRPAPG [AAARRPAPG (SEQ ID NO:46)], the inhibition is reported as 51%.
AARRPFPG [AARRPFPG (SEQ ID NO:47)] was tested, and the inhibition was 28%.
